Experiments:
[1] = target: T1, MBP-Th-LGR4 LRR1-14 (MBP-Th-hLGR4.23-383-H6) (human, UniProt Q9BXB1 23-383); assay: TR-FRET competition binding to LGR4 ECD
T1 construct: range 23-383; Produced in E. coli; Labeled with amine-reactive terbium chelate in the TR-FRET assay; unlabeled in the AlphaLISA ternary complex assay; also called MBP-Th-LGR4 ECD; LGR4 ECD; not shown: thrombin cut site (Th) linker
Experimental: (§1) HEK293T cells transfected with TOPFLASH firefly luciferase reporter and Renilla luciferase control plasmids were treated with the indicated concentrations of MBP-Th-RSPO Fu1-Fu2 proteins in 1:6 diluted Wnt3a conditioned media. […] (C) AlphaLISA® luminescent proximity assay (BMG Labtech GmbH, Ortenberg, Germany) for ZNRF3 ECD binding. The indicated concentrations of MBP—Th-RSPO Fu1-Fu2 proteins were incubated with 3 nM Biotin-ZNRF3 ECD. Donor and acceptor beads were at 20 μg/ml each. Data shown for panels A-C are representative of at least three independent experiments, each performed in duplicate. The error bars represent the S.E.M. of the experiment. (D, E, F) Vertical scatter plots showing the pECso, Eₘₐₓ, and pK₁ values obtained from replicate independent signaling and LGR4 binding experiments as in panels A and B. The mean values and error bars representing the S.E.M. of the replicates are denoted.
(§2) The LGR4 ECD binding abilities of the newly purified MBP-Th-RSPO Fu1-Fu2-H₆ proteins were examined in an in vitro LanthaScreen®TR-FRET competition-binding assay (Thermo Fisher Scientific Inc., Rockford, Ill.).

[2] = target: T1, MBP-Th-LGR4 LRR1-14 …; assay: TR-FRET competition binding; Tb-labeled MBP-Th-LGR4 LRR1-14 (20 nM), AF488-labeled MBP-Th-RSPO2 Fu1-Fu2 (125 nM) as tracer
Experimental: as §1, §2

[3] = target: T1, MBP-Th-LGR4 LRR1-14 …; assay: TR-FRET competition binding; Tb-labeled MBP-Th-LGR4 LRR1-14, AF488-labeled MBP-Th-RSPO2 Fu1-Fu2 as tracer
[4] = target: T1, MBP-Th-LGR4 LRR1-14 …; assay: AlphaLISA ternary complex control assay

Binder | pKI [2] | pKI [3] | also measured
MBP-Th-RSPO4 Fu1-Fu2-H6 (MBP-Th-RSPO4.21-138-H6), produced in E. coli (ligand, Bacterially produced; also called MBP-Th-RSPO4 (E. coli); pAP356; not shown: thrombin cut site (Th) linker) NRRKKQVGTGLGGNCTGCIICSEENGCSTCQQRLFLFIRREGIRQYGKCLHDCPPGYFGIRGQEVNRCKKCGATCESCFSQDFCIRCKRQFYLYKGKCLPTCPPGTLAHQNTRECQGEHHHHHH | 8.12 | 8.28 | fold stronger affinity than RSPO2 and RSPO3 [1]: ~7 fold
commercial full-length RSPO4 produced in CHO cells (R&D Systems, catalog number 4575-RS-025/CF) (ligand, UniProt Q2I0M5 20-234, looked up, mature; Bought protein; also called R&D RSPO4 (CHO)) LNRRKKQVGTGLGGNCTGCIICSEENGCSTCQQRLFLFIRREGIRQYGKCLHDCPPGYFGIRGQEVNRCKKCGATCESCFSQDFCIRCKRQFYLYKGKCLPTCPPGTLAHQNTRECQGECELGPWGGWSPCTHNGKTCGSAWGLESRVREAGRAGHEEAATCQVLSESRKCPIQRPCPGERSPGQKKGRKDRRPRKDRKLDRRLDVRPRQPGLQP | – | 8.23 | –
MBP-Th-RSPO1 Fu1-Fu2-H6 (ligand, Produced in E. coli; also called MBP-Th-hRSPO1 Fu1-Fu2-H6; not shown: thrombin cut site (Th) linker) SRGIKGKRQRRISAEGSQACAKGCELCSEVNGCLKCSPKLFILLERNDIRQVGVCLPSCPPGYFDARNPDMNKCIKCKIEHCEACFSHNFCTKCKEGLYLHKGRCYPACPEGSSAANGTMECSSPHHHHHH | 6.9 | – | –
MBP-Th-RSPO2 Fu1-Fu2-H6 (MBP-Th-RSPO2.22-144-H6) (ligand, Produced in E. coli; also called pAC018; not shown: thrombin cut site (Th) linker) QGNRWRRSKRASYVSNPICKGCLSCSKDNGCSRCQQKLFFFLRREGMRQYGECLHSCPSGYYGHRAPDMNRCARCRIENCDSCFSKDFCTKCKVGFYLHRGRCFDECPDGFAPLEETMECVEGHHHHHH | 7.26 | – | –
MBP-Th-RSPO3 Fu1-Fu2-H6 (MBP-Th-RSPO3.22-146-H6) (ligand, Produced in E. coli; also called pAP355; not shown: thrombin cut site (Th) linker) QNASRGRRQRRMHPNVSQGCQGGCATCSDYNGCLSCKPRLFFALERIGMKQIGVCLSSCPSGYYGTRYPDINKCTKCKADCDTCFNKNFCTKCKSGFYLHLGKCLDNCPEGLEANNHTMECVSIVHHHHHH | 7.31 | – | –
Biotin-ZNRF3 ECD (Avi tag-ZNRF3.56-216-H6, MBP removed by thrombin) (receptor, human, biotin on the N-terminal Avi tag (site-specific in vivo biotinylation by BirA), range 56-216; Expressed in E. coli as MBP-Th-Avi tag-ZNRF3.56-216-H6; also called biotinylated ZNRF3 ECD; B-Z; not shown: Avi tag (and residues left after thrombin cleavage)) KETAFVEVVLFESSPSGDYTTYTTGLTGRFSRAGATLSAEGEIVQMHPLGLCNNNDEEDLYEYGWVGVVKLEQPELDPKPCLTVLGKAKRAVQRGATAVIFDVSENPEAIDQLNQGSEDPLKRPVVYVKGADAIKLMNIVNKQKVARARIQHRPPRQPTEYHHHHHH | – | – | binding result [4]: no binding (tested: 5 nM each)
